In US20220227874A1, “CHIMERIC ANTIGEN RECEPTORS TARGETING EPIDERMAL GROWTH FACTOR RECEPTOR VARIANT III” (published 2022):

Experiments:
[1] = molecular target: T1, EGFRvIII expressed on cells (F98-npEGFRvIII, NCI-H522-EGFRvIII, U87-KO-EGFRvIII) (human); test: flow cytometry, F98-EGFRvIII cells; 2nd Ab only 258
[2] = molecular target: T1, EGFRvIII expressed on cells …; test: flow cytometry, F98-EGFRvIII cells; 2nd Ab only 2.3
[3] = molecular target: T1, EGFRvIII expressed on cells …; test: flow cytometry, EGFRvIII expressing cell line against non-expressing cell lines
[4] = molecular target: T1, EGFRvIII expressed on cells …; test: flow cytometry, F98-EGFRvIII cells; 2nd Ab only 322
[5] = molecular target: T1, EGFRvIII expressed on cells …; test: flow cytometry, F98-EGFRvIII cells; 2nd Ab only 1.3

| MFI [1] | % positive [2] | fold MFI over non-expressing cell lines [3] | MFI [4] | % positive [5] | Binder |
| --- | --- | --- | --- | --- | --- |
| 3350 | 98.3% | ≥ 10 fold | – | – | 32A10 (antibody, V domains shown) VH: QVTLKESGPVLVKPTETLTLTCTVSGFSLSNARMGVSWIRQPPGKALEWLAHIFSTDEKSIRRSLRSRLTLSKDTSKSQVVLTMTNMDPVDTATYFCARDSSNYEGYFDYWGQGTLVTVSS VL: EVVMTQSPATLSVSPGERVTLSCRASQSVSSNFAWYQQRPGQAPRLLLYGATTRATGLPGRFSGSGSGTENILTISSLQSEDFAIYFCQQYKDWPFTFGPGSKVDIK |
| 3100 | 98.5% | ≥ 10 fold | – | – | 21E11 (antibody, V domains shown) VH: QVTLKESGPVLVKPTETLTLTCTVSGFSLSNVRMGVSWIRQPPGKALEWFAHIFSSDEKSIRRSLRSRLTLSKDTSKSQVVLTMTNMDPVDTATYYCARDSSNYEGYFDFWGQGTLVTVSS VL: DMVVTQSPATLSVSPGERATLSCRASQSVGSDLAWYQQPPGQSPRLLIYGASTRATGVPARFSGSGSGTDFTLTITSLESEDFAVYYCQQYNDWPFTFGPGTKVDIK |
| 2980 | 98.5% | ≥ 10 fold | – | – | 49B11 (antibody, V domains shown) VH: QVTLKESGPVLVKPTETLTLTCTVSGFSLSNVRMGVSWIRQPPGKALEWFAHIFSSDEKSIRRSLRSRLTLSKDTSKSQVVLTMTNMDPVDTATYYCARDSSNYEGYFDYWGQGTLVTVSS VL: EMEVTQSPATLSVSPGERATLSCRASQNIGSDLAWYQQQSGQAPRLLISGASTRATGVPTRFSGSGSGTDFTLTITSLQSEDFAVYYCQQYNDWPFTFGPGTKVDIK |
| 3100 | 98.5% | ≥ 10 fold | – | – | 21E7 (antibody, V domains shown) VH: QVTLEESGPVLVKPTETLTLTCTVSGFSLSNARMGVSWIRQPPGKAPEWFAHIFSTDEKSLRLSLRSRLTLSKDTSKSQVVLTMTNMDPVDTATYYCARDSSNYEGYFDYWGQGTLVTVSS VL: DVVLTQSPATLSVSPGERATLSCRASQSVNSNLAWYQQNPGQAPRLLIFGSSTRATGIPASFSGSGSGTEFTLTINSLQSEHSAVYYCQQYNDWPFTFGPGTKVDIK |
| 3250 | 98.5% | ≥ 10 fold | – | – | 42G9 (antibody, V domains shown) VH: QVTLKESGPVLLKPTETLTLTCTVSGFSLSNPRMGVSWIRQPPGKALEWFAHIFSTDEKSLKLSLRSRLTLSKDTSKSQVVLTMTNMAPVDSATYYCARDSSNYEGYFDFWGQGTLVTVSS VL: EVVLTQSPATLSVSPGERATLSCRASQSVRSNLAWYQQKSGQAPRLLIYGSTIRATGVPARFSGSGSGTEFTLTISSLQSEDFAVYYCQQYSDWPFTFGPGTKVDIK |
| 2830 | 97.9% | ≥ 10 fold | – | – | 29D5 (antibody, V domains shown) VH: QVTLKESGPVLVKPTETLTLTCTVSGFSLSNPRMGVSWLRQPPGKALEWFAHIFSTDEKSYSPSLRGRLTVSKDTSKSQVVLTLTNMDPVDTATYYCARDSSNYEGYFDYWGQGTLVTVSS VL: KIVMTQSPATLSVSPGERATLSCRANQIVSSNLAWYQQKPGQAPRLLVFGTSTRATGIPIRFSGSGSGTEFTLTVSSLQSEDFAVYVCQQYNDWPFTFGPGTKVDIK |
| 2990 | 98.7% | ≥ 10 fold | – | – | 46E10 (antibody, V domains shown) VH: QVTLKESGPVLVKPTETLTLTCTVSGFSLSNARMGVSWIRQPPGKALEWLAHIFSTDEKSIRRSLRSRLTLSKDTSKSQVVLIMTNMDPVDTATYYCARDSSNYEGYFDYWGQGTLVTVSS VL: EVVMTQSPPNLSVSPGERATLSCRASQSVTSNFAWYQQRPGQSPRLLLYGASTRATGVPGRFSGSGSGTENILTISSLQSEDFAVYFCQQYKDWPFTFGPGSKVDIK |
| – | – | – | 4640 | 98.5% | 20G5 (antibody, V domains shown) VH: EVQLVESGGDLVKPGGSLRLSCAASGFTFTNAWMSWVRQAPGKGLEWVGRIKSKIDGGTTDYAAPVKGRFIISRDDSKNTLSLQMNSLKTEDTAMYYCTTAPGGPFDYWGQGSLVTVSS VL: DIVLTQSPLSLPVTPGEPASISCRSSQSLLYSDRRNYLDWFLQKPGQSPHLLIYLGSYRASGVPDRFSGSGSGTDFTLKISRVEAEDVGVYYCMQALQIPITFGQGTRLEIK |
| – | – | ≥ 10 fold | 5400 | 98.6% | 26B9 (antibody, V domains shown) VH: EVQLVESWGVLVKPGGSLRLSCAASGFIFNNAWMSWVRQAPGKGLEWIGRIKSKSDGGTTDYAAPVKDRFTISRDDSKDTLYLQMNGLKTEDTAVYFCTTAPGGPFDYWGQGTLVTVSS VL: DIVLTQSPLSLPVTPGEPASISCRSSQSLLHRDGFNYLDWFLQKPGQSPQLLIYLASSRASGVPDRFSGSDSGTDFTLKISRVEAEDVGVYYCMQALQTPITFGQGTRLEIK |
| – | – | ≥ 10 fold | 5160 | 98.6% | 30D8 (antibody, V domains shown) VH: EVQLVESGGGLVKPGGSLRLSCEASGFTFSDAWMSWVRQAPGKGLEWVGRIKSKTDGGTTDYVVPLNGRFIISRDDSRNTLYLQLNNLKTEDTAVYYCTTVPGSYGYWGQGTLVTVSS VL: DIVMTQSPLSLPVTPGEPASISCRSSQSLLHNKRNNYLDWFLQKPGQSPQLLIYLASNRASGVPDRFSGGGSGTDFTLKISRVEAEDVGVYYCMQAQQTPITFGQGTRLEIK |

More lines, now with the values behind:

| Binder | MFI [1] | % positive [2] | fold MFI over non-expressing cell lines [3] | MFI [4] | % positive [5] |
| --- | --- | --- | --- | --- | --- |
| 19A9 (antibody, V domains shown) VH: QVTLEESGPVLVKPTETLTLTCTVSGFSLSNARMGVSWIRQPPGKAPEWFAHIFSTDEKSLRLSLRSRLTLSKDTSKSQVVLTMTNMDPVDTATYYCARDSSNYEGYFDYWGQGTLVTVSS VL: EVVMTQSPATLSVSPGERATLSCRASQSVNRNLAWYQQKPGQAPRLLIFGTSTRATGIPARFSGSGSGTEFTLTIDSLQSEHSGLYYCQQYNDWPFTFGPGTKVDIK | 3100 | 98.1% | ≥ 10 fold | – | – |
| 14C11 (antibody, V domains shown) VH: QVTLKESGPVLVKPTETLTLTCTVSGFSLNNARMGVSWIRQPPGKALEWFAHIFSTDEKSFRTSLRSRLTLSKDTSKSQVVLTMTNMDPVDTATYYCARDSSNYEGYFDYWGQGILVTVSS VL: EIVMTQSPATLSVSPGERATLSCRASQSVSNNLAWYQQKPGQAPRLLIYGASTRATGVPARFSGSDSGTEFSLTISSLQSEDFAVYFCQQYKDWPFTFGPGTKVEIK | 3210 | 98.2% | ≥ 10 fold | – | – |
| 11B11 (antibody, V domains shown) VH: QVTLKESGPVLVKPTETLTLTCTVSGFSLSNAKMGVSWIRQPPGKALEWLAHIFSTDEKSIRRSLRSRLTMSKDTSKSQVVLTMTNMDPVDTATYYCVRDSSNYEGYFDYWGQGTLVTVSS VL: EVLMTQSPATLSVSPGERATLSCRASQSVSTNFAWYQQRPGQAPRLLLFGASTRATGIPGRFSGSGSGTENILTISSLQSEDFAIYFCQQYKDWPFTFGPGSKVEIK | 3390 | 98.2% | ≥ 10 fold | – | – |
| 12B2 (antibody, V domains shown) VH: QVTLKESGPVLVKPTETLTLTCTVSGFSLSNPRMGVSWIRQPPGKALEWLGHIFSSDEKSYRLSLRSRLSISKDTSKSQVVLTMTNMDPVDTATYYCVRDSSNYGGYFDYWGQGTLVTVSS VL: EVVMTQSPATLSVSPGERATLSCRASQSVINNLAWYQQKPGQAPRLLIYGTSTRATDIPARFSGSGSGTEFTLTISSLQSEDFAVYYCQDYNNWPFTFGPGTKVDIK | 2750 | 97.9% | ≥ 10 fold | – | – |
| 12H6 (antibody, V domains shown) VH: QVTLKESGPVLVKPTETLTLTCTVSGFSLSNARMGVSWIRQPPGKALEWLAHIFSTDEKSIRRSLRSRLTLSKDTSKSQVVLTMTNMDPVDTATYYCARDSSNYEGYFDYWGQGTLVTVSS VL: EVVMTQSPATLSVSPGERATLSCRASQGVSSNFAWYQQRPGQSPRLLLYGASTRATGVPGRFSGSGSGTENILTISSLQSEDFAIYFCQQYKDWPFTFGPGSKVDIK | 3440 | 98.3% | ≥ 10 fold | – | – |
| 11F10 (antibody, V domains shown) VH: QVTLKESGPVLVKPIETLTLTCTVCGFSLSNPRMGVSWIRQPPGKALEWLGHIFSSDEKSYRLFLRSRLSISKDTSKSQVVLTMTNMDPVDTATYYCARDSSDYEGYFDYWGQGTLVTVSS VL: EIVMTQSPATLSVSPGERTTLSCRASQSVGSNLAWYQQKPGQAPRLLIYGASTRASGVPARFSGSGSGTEFTLTISSLQSEDFAVYSCQEYNNWPFTFGQGTKVEIK | 3280 | 98% | ≥ 10 fold | – | – |
| 20E12 (antibody, V domains shown) VH: EVNLVESGGGLVKPGGSLRLSCEASGFTFSYAWMSWVRQAPGKGLEWVGRIKSIADGGATDYAAPVRNRFTISRDDSRNTLYLEMHSLKTEDTAVYYCTTIPGNDAFDMWGQGTMVTVSS VL: DIVLTQSPLSLSVTPGEPASISCRSSQSLLYSNGKNYLDWFLHKPGQSPQLLIYLGSNRASGVPDRFSGSGSGIDFILKISRVEAEDVGVYYCMQAQQTPITFGQGTRLEIK | – | – | ≥ 10 fold | 3980 | 97.9% |
| 20B9 (antibody, V domains shown) VH: QVTLKESGPVLVKPTETLTLTCTVSGFSLSNARMGVSWIRQPPGKALEWLGHIFSTDEKSYSTSLRGRITISKDTSRGLVVLTLTNMDPVDTATYYCARDSSNYEGYFDFWGPGFLVTVSS VL: EIVMTQSPATLSVSPGERATLSCRVSQSIGANLAWYQQKFGQAPRLLIYGASTRATGIPVRFSGGGSGTEFTLTISSLQSEDFAIYSCQQYIYWPFTFGPGTTVDIK | 3420 | 98.3% | ≥ 10 fold | – | – |
